Columns and labels:
[1] = system: MS2 coat protein; experiment: apparent KD of MS2 coat protein, switch ON state; designed switch direction (-1 OFF switch, 1 ON switch): -1; higher = weaker reporter binding; conditions: FMN input: 0 or 200 uM; Eterna round: R93 (includes R88 designs)
Outline: (§1)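 On-chip transcription from Illumina sequencing clusters produced the designed RNA switches. These were titrated with SNAP-549-labelled MS2 coat protein (twofold steps, 0.7 or 1.5 nM to 3 µM) in 100 mM Tris-HCl pH 7.5, 80 mM KCl, 4 mM MgCl2, with or without constant ligand. The apparent KD given is the per-design median of normalised cluster binding-curve fits.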

[2] = system: MS2 coat protein; experiment: apparent KD of MS2 coat protein, switch OFF state (with FMN for OFF switches, without FMN for ON switches); designed switch direction (-1 OFF switch, 1 ON switch): -1; higher = weaker reporter binding; conditions: FMN input: 0 or 200 uM; Eterna round: R93 (includes R88 designs)
Outline: as §1

[3] = system: MS2 coat protein; experiment: apparent KD of MS2 coat protein; designed switch direction (-1 OFF switch, 1 ON switch): 1; higher = weaker reporter binding
Outline: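 RNA switches sharing common flanks were transcribed by stalled E. coli RNA polymerase on Illumina chips. A doubling series of SNAP-549-labelled MS2 coat protein, from 0.7 or 1.5 nM to 3 µM, was applied in Tris-HCl pH 7.5 buffer with KCl, MgCl2, BSA, DTT, tRNA and Tween-20. Each step lasted 0.8–1.5 h at the bottom of the series and 10–20 min at the top. Normalised cluster fluorescence was curve-fitted, giving apparent KD as the per-design median over clusters.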

[4] = Eterna round: R95, input ligand: FMN 200 uM
[5] = Eterna round: R95, input ligand: microRNA oligo, concentration not stated
[6] = Eterna round: R95, input ligand: none
[7] = input ligand: microRNA oligo, concentration not stated

| Sequence | apparent KD of MS2 coat protein [3, 5] [nM] | apparent KD of MS2 coat protein ([3]; input ligand: FMN 200 uM) [nM] | apparent KD of MS2 coat protein [3, 7] [nM] | apparent KD of MS2 coat protein ([3]; input ligand: none) [nM] | other results |
| --- | --- | --- | --- | --- | --- |
| CUUAUGUGAGGAUAUGGUGUUGGCCACAGGGAAAAGAUCCUCCAGAAGGCACAUGAGGAUCACCCAUGUAGUGA [Jolly's Folly 29 - Jieux - Exclusion 4] |  |  |  |  | apparent KD of MS2 coat protein [1]: 69 nM; apparent KD of MS2 coat protein [2]: 160 nM |
| AAGAAACAUGAGGAUCACCCAUGUGAGGAUAUUGAAGAAAGAAAGAAAGAAAGAAGAACAAGAAGGCACAAAGG [Quintus Magnus Maximus] |  |  |  |  | apparent KD of MS2 coat protein [1]: 26.9 nM; apparent KD of MS2 coat protein [2]: 35 nM |
| AAACCACAUGAGGAUCACCCAUGUUAGGAUAUGCUAUGGAAAUAAAAAAUAAAACAUAGCAGAAGGGACAAAAA [Mat - Exclusion 1 - Eli mod - D35] |  |  |  |  | apparent KD of MS2 coat protein [1]: 19.7 nM; apparent KD of MS2 coat protein [2]: 19.3 nM |
| AAAAAACAUGAGGAUCACCCAUGUAAGGAUAUGCAAAAGAAAAGAAAAGAAAGAAGAAGCAGAAGGUACAAGAA [Userkaf] |  |  |  |  | apparent KD of MS2 coat protein [1]: 35 nM; apparent KD of MS2 coat protein [2]: 31.2 nM |
| CGUCCAGCCUGAGCUGGACAAAAGCAUGUACAUGAGGAUCACCCAUGUUCAUGUACAAGCUUUUUGCUCGUCUUAGC [salish99_208a_r3_075] (puzzle: Sensor for hsa-mir-208a) | 14.3 |  |  |  | apparent KD of MS2 coat protein [3, 4]: 730 nM; apparent KD of MS2 coat protein [3, 6]: 860 nM |
| GGUAGGUUACUACCAAACAUGAGGAUCACCCAUGUAGGUGGGAAGGAUAUGGUACCUUUUAGGUACCAGAAGGUCCAUACGAUC [NGss mod of JL's mod of Fisker 2] (Eterna round: R96, puzzle: Same State NG 3) |  | 451 | 325 | 562 |  |
| GCAGUACUAGCAGAGGAUAUGUCGAUAACGACAUGAGGAUCACCCAUGUGUACGGAAGUACUCAGACAGAAGGCUGAGUACUGCU [Same State 2 - Hyphema v.2] (puzzle: Same State 2) | 30.2 |  |  |  | apparent KD of MS2 coat protein [3, 4]: 15.2 nM; apparent KD of MS2 coat protein [3, 6]: 41.8 nM |
| GGUGGGUUGCUGCCGGCACAUGAGGAUCACCCAUGUUUUGGGAAGGAUAUGGUACCUAUUUGGUACCAGAAGGUCCCGUUGGUG [salish99_SSNG3_r04_709] (Eterna round: R96, puzzle: Same State NG 3) |  | 978 | 449 | 898 |  |
| GUGGUCAGACAUGAGGAUCACCCAUGUGGAAUAAAUAAGGGUCAGGAUAUGGAAUAUAGGAUAUACCAGAAGGGAUGGUUGGUG (Eterna round: R96, puzzle: Same State NG 3) |  | 134 | 70.2 | 92.8 |  |
| GUAGCAUACCGAGGAUAUUCAUAUACAUGAGGAUCACCCAUGUUAAAUAAUAGGCGAAAGCCUUGGGAGAAGGCGGAAUGCUAC [Xeonanis - 20 Mod70] (Eterna round: R96, puzzle: Same State NG 2) |  | 10.3 | 9.72 | 12.6 |  |
| ACUUAGUACAAUUUAGAUCUACAUGAGGAUCACCCAUGUACUGAGGAUAUCAGCUCGUUUAGAGCUGAGAAGGCAGAAGUACUU [SSNG3/8-A3] (Eterna round: R96, puzzle: Same State NG 3) |  | 54.7 | 234 | 207 |  |
| CCGAUGAUAGGACAGGAUAUGACUGUCGUCACAUGAGGAUCACCCAUGUCCCGGCAAUGCCACCGUUAGAAGGGUCCCAUCUCGG [Uslainarin] (puzzle: Same State 2) | 15.6 |  |  |  |  |
| UUACUCAUGUAAGGAUAUGCAGCCGAAACGGCUGCAGAAGGUACUAUAAUACAUGAGGAUCACCCAUGUCUCUAUUAUUUAGUU [Mat - Same State NG 1 - JL mod - D94] (Eterna round: R96, puzzle: Same State NG 1) |  | 73.4 | 38.2 | 58 |  |
| UGGUACAUGGGAGGAUAUCAUGCAGACAUGAGGAUCACCCAUGUAGCCAUGGAGACAUGGGUAUAUGAGAAGGCCCAUGUACCU [JL SSNG1 3.53] (Eterna round: R96, puzzle: Same State NG 2) |  | 145 | 37.7 | 207 |  |
| AAGCGCUGUCGAGAGGAUAUGCGGUGAUGGACAUGAGGAUCACCCAUGUUAGCGAUAGCAUUACGGUAGAAGGCUCUACAGCUGA [Mat - Same State 2 - Mod of UCT - D86] (puzzle: Same State 2) | 268 |  |  |  | apparent KD of MS2 coat protein [3, 4]: 28.3 nM; apparent KD of MS2 coat protein [3, 6]: 272 nM |
| GGAGCCGGCACCGAGGAUAUUCAUAUUAAAACAUGAGGAUCACCCAUGUAGAGGAGAACCUCUUGGGAGAAGGCGGAUCGGCUCG [Xeonanis - 26] (puzzle: Same State 2) | 723 |  |  |  | apparent KD of MS2 coat protein [3, 4]: 289 nM; apparent KD of MS2 coat protein [3, 6]: 1090 nM |
| ACAUGAGGAUCACCCAUGUAUAGAAUUGAAUGUUAAGAUACGUAGGAUAUCGAGUUUAGUAUGAUCGAGAAGGACGAUCUGAUA [JR_SSNG3_Sub065] (Eterna round: R96, puzzle: Same State NG 3) |  |  | 14.5 |  |  |
| AGAUCAUGACGAGGAUAUGGAACAUGAGGAUCACCCAUGUAUGUUCCAUAACGCGAACGACGAAUCCAGAAGGCGUCGUGAUCA [Mat - Same State NG 2 - JL mod - D42] (Eterna round: R96, puzzle: Same State NG 2) |  | 5.24 | 21.6 | 26.3 |  |
| GAGGAUGAUUUACAGGAUAUAUAGCAGAUGACAUGAGGAUCACCCAUGUAAGAGAAAGGAGGGAGAUAGAAGGGUAUGGGAUGUG [JR_SS2_Sub039] (puzzle: Same State 2) | 21.5 |  |  |  | apparent KD of MS2 coat protein [3, 4]: 29.9 nM; apparent KD of MS2 coat protein [3, 6]: 22.3 nM |
| UGCAUACGCCUACAAGAGGAGUCCUGCAGACAUGAGGAUCACCCAUGUAACUCGAAUUCAGUUCGUUCGUCUGUCGU [JR_hsamir208a_Sub1412] (Eterna round: R96, puzzle: Sensor for hsa-mir-208a) |  | 57 | 33.9 | 52.9 |  |
| GUUACAUGAGGAUCACCCAUGUAUGUGUGGGAGUAAGUGUCUUAGGAUAUCUAUGAGUUAAUUUAAGAGAAGGAAGAUUGUUGU [JMF's solution 74] (Eterna round: R96, puzzle: Same State NG 3) |  | 97.2 | 63.4 | 77.5 |  |
| GUGGAGAAUUAAGGAUAUCGAGUCAAGAUGUUAAACAUGAGGAUCACCCAUGUGGGUUGCGGUAUCGAGAAGGUAAUUUACGGG [salish99_SSNG2_r04_505] (Eterna round: R96, puzzle: Same State NG 2) |  | 22.4 | 21.3 | 36.8 |  |
| GUUAUACAUGAGGAUCACCCAUGUCAAUGUAGUCGAGGAUAUGGGCAGCUAUGAGGCGUACUAGAAGGCGAGGAGU [JL-ss1-3.15 ViennaUCT mod] (puzzle: Same State 1) | 90.5 |  |  |  | apparent KD of MS2 coat protein [3, 4]: 90.7 nM; apparent KD of MS2 coat protein [3, 6]: 134 nM |
| GUUACAUGAGGAUCACCCAUGUAAGUGUGGGAGAAAGUGACUUAGGAUAUCUAAUAUUUAAAUUAAGAGAAGGAAGAUUGUUGU [JMF's solution 4] (Eterna round: R96, puzzle: Same State NG 3) |  | 86.8 | 64.3 | 81.6 |  |
| AGCUAUCGAAAACGAUAGCAAAGGCAUGUACAUGAGGAUCACCCAUGUCAUGUACAAGCUUUUUGCUCGUCUUAAAA [Zipper 23 - 3] (puzzle: Sensor for hsa-mir-208a) | 15.9 |  |  |  | apparent KD of MS2 coat protein [3, 4]: 799 nM; apparent KD of MS2 coat protein [3, 6]: 983 nM |
| GAAAUAAUGAAAGGAUAUACAUGAGGAAUUCUCGUAGAAGGUUCAUGACAUGAGGAUCACCCAUGUAUCGCUCGAAAGAGCGAG [Mat - Same State NG 1 - JL mod - D31] (Eterna round: R96, puzzle: Same State NG 1) |  | 510 | 152 | 64 |  |
| GCUCGAUGAGCGGUUUACAUGAGGAUCACCCAUGUACAUGGGCAGGAUAUUUACGUGCUUUGUGUAGAGAAGGGCCCAUCGAGC [SameState NG3 #74] (Eterna round: R96, puzzle: Same State NG 3) |  | 92.4 | 280 | 244 |  |
| CUAAAACAUGAGGAUCACCCAUGUCAACAAAGUCGAGGAUAUGGGCAAAUAAAAUAAGAACCAGAAGGCGAAUAAC [salish99_SS1_r3_014] (puzzle: Same State 1) | 222 |  |  |  |  |
| AUUAGUAAUGCAGGAUAUGAUUAACAUGAGGAUCACCCAUGUGGUGUUGUGAGUAAGGAGAGUGAUCAGAAGGGCAUUUUUUUU [JMF's solution 28] (Eterna round: R96, puzzle: Same State NG 2) |  | 979 | 411 | 444 |  |
| AGUCCAGCCAGAGCUGGACAAAAGCAUGUACAUGAGGAUCACCCAUGUCAUGUACAAGCUUUUUGCUCGUCUUAAUA [Mat - hsa-mir-208a - Mod of JL - D37] (puzzle: Sensor for hsa-mir-208a) | 15.4 |  |  |  | apparent KD of MS2 coat protein [3, 4]: 632 nM; apparent KD of MS2 coat protein [3, 6]: 621 nM |

From the supplement of paper PMC9170038
